Experimental findings from US20220242962A1 (APTEVO RESEARCH AND DEVELOPMENT, published 2022) are described below.

The target in assay [1] is T1, Full-length Human 4-1BB (human, UniProt Q07011 24-255).
T1 construct: also called FOB005; CD137
In words: flow cytometry, Jurkat cells expressing human 4-1BB. On the procedure:
Serial dilutions of ADAPTIR™ constructs were incubated with cells transfected with human or cynomolgus ECD and subsequently labelled with a fluorescently-conjugated goat-α-human Fc secondary antibody. […] (See Example 16.)

In assay [2] the target is T2, Full-length Human OX40 (human, UniProt P43489 29-277).
T2 sequence: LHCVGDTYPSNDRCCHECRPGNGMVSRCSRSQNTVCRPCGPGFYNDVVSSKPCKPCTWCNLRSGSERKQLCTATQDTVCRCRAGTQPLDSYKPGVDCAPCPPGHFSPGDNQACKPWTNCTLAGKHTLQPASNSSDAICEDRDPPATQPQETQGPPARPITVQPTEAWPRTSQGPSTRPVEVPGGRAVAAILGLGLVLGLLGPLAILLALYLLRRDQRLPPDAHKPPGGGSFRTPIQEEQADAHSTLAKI
In words: cell-based or functional assay.

In assay [3] the target is T3, Human OX40 ECD-AFH (human).
T3 construct: ECD'; entry includes the C-terminal tags; also called OXF003; Human OX40 ECD-avi-flag-his
T3 chain: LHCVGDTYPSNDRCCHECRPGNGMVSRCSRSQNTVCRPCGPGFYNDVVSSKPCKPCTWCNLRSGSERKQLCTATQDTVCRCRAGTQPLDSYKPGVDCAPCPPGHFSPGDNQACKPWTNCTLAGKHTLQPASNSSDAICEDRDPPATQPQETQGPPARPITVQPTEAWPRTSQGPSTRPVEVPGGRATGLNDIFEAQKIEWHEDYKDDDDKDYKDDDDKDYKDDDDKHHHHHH
In words: SPR (T200), construct captured, monomeric ECD as analyte. On the procedure: Mouse anti-human IgG (GE, BR-1008-39) at 25 μg/ml in 10 mM sodium acetate pH 5.0 was immobilized at a density of ˜10,000 response units (RU) onto each flow cell of a CM5 research-grade sensor chip (GE) by standard amine coupling chemistry. Each binding protein at approximately 100 nM in HBS-EP+ with 0.2% BSA buffer was captured in a flow cell with the immobilized anti-human IgG at a flow rate of 10 μL/min for 20 seconds, leaving one flow cell surface unmodified as the reference. Using a single-cycle kinetics mode, five different concentrations of ECD were sequentially injected through each flow cell at 30 μL/min for 300 seconds followed by a 600 second dissociation period. Regeneration was achieved by injection of 3 M MgCl₂ at a flow rate of 30 μL/min for 30 seconds followed by HBS-EP+ with 0.2% BSA buffer stabilization for 1 min.
Sensorgrams obtained from kinetic SPR measurements were analyzed by the double subtraction method. The signal from the reference flow cell was subtracted from the analyte binding response obtained from flow cells with immobilized or captured ligands. Buffer reference responses were then averaged from multiple injections. The averaged buffer reference responses were then subtracted from analyte binding responses, and the final double-referenced data were analyzed with Biacore T200 Evaluation software (2.0, GE), globally fitting data to derive kinetic parameters. All sensorgrams were fitted using a simple one-to-one binding model.

Assay [4] has as its target T2, Full-length Human OX40. In words: flow cytometry, CHO cells expressing human OX40.
In assay [5] the target is T4, C1Q (UniProt P02745 23-245; P02746 28-253; P02747 29-245).
T4 construct: also called complement C1Q
T4 sequence (P02745 23-245 limits assumed, chain 1 of 3): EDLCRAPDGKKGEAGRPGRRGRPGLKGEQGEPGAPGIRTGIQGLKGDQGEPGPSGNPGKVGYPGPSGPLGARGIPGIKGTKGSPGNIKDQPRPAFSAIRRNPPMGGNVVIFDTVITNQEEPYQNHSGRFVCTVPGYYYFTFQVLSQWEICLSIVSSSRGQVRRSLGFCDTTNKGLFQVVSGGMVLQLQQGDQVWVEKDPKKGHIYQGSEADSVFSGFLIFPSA
T4 sequence (P02746 28-253 limits assumed, chain 2 of 3): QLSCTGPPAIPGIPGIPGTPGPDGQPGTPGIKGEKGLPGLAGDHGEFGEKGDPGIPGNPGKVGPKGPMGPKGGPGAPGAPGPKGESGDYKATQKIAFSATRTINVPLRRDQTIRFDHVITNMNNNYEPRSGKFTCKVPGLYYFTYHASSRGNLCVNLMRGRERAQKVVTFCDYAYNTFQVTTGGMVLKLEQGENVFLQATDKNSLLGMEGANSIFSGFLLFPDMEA
T4 sequence (P02747 29-245 limits assumed, chain 3 of 3): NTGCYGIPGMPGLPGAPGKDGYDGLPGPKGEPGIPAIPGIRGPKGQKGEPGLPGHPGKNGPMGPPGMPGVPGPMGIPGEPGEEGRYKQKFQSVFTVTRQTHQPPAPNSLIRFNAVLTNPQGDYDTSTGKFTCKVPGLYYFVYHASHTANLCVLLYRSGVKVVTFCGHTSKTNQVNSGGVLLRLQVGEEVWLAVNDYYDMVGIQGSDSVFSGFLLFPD
In words: SPR, Fc captured, C1Q as analyte. How it is done:
Fc mutations to be potentially integrated into an ADAPTIR™ bispecific construct were analyzed for binding to the common Fc receptors (human and cyno) and C1Q, which is a component of the complement activation system. SPR experiments were conducted at 25° C. in HBS-EP+ buffer on a Biacore T200 system.
(§1) For these experiments, all four flow cells of a CM5 sensor chip were immobilized with goat F(ab′)2 anti-human Fc (Jackson ImmunoResearch) to a response level of ˜4000 RU. Fc variants and wild type Fc were diluted to 100 nM in HBS-EP+ and captured on the surface of the chip for 120 seconds at a flow rate of 10 μL/min. Fcγ receptors (human and cyno, all purchased from R&D Systems) and complement (C1Q, purchased from Quidel Corporation and Complement Technology, Inc) were diluted in HBS-EP+ and then flowed as analytes at 30 μL/min for 120 seconds followed by a 120 seconds dissociation. Regeneration was achieved by flowing 10 mM glycine pH 1.7 at 30 μL/min for 30 seconds followed by a 60 seconds stabilization. Flow cell 1 was always left as a blank (no captured protein) for purposes of background signal subtraction. Blank-subtracted sensorgrams for each captured Fc variant were inspected for the presence of binding to any of the Fcγ receptor proteins or complement. There are polymorphisms in the Human Fc receptors IIA and RIIIA, so both sequences were tested for binding.

For assay [6], the target named is T5, Recombinant FcRn/b2M protein (human, UniProt P55899 24-297; P61769 21-119, limits assumed).
T5 construct: also called hFcRn/b2M; neonatal Fc receptor
T5 sequence (P55899 24-297 limits assumed, chain 1 of 2): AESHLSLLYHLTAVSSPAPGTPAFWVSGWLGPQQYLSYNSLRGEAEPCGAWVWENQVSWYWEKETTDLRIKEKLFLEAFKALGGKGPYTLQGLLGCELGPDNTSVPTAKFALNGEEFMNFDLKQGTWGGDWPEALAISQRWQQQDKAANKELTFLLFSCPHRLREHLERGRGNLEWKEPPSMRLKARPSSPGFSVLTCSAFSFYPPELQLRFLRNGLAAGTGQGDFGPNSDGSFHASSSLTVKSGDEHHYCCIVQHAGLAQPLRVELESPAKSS
T5 sequence (P61769 21-119 limits assumed, chain 2 of 2): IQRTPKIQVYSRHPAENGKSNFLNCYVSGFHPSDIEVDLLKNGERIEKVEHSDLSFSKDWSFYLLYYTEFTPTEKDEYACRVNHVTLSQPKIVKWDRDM
In words: SPR pH 6.0, FcRn/b2M immobilized, two-state reaction model. On the procedure:
Recombinant FcRn/b2M protein was generated via transient transfection of HEK-293 cells with a bi-cistronic vector containing the genes for both FcRn and […]. The complex was purified using IMAC chromatography and subsequently buffer exchanged into IMAC elution buffer after verifying purity of the IMAC eluate by analytical SEC. hFcRn/b2M at 10 μg/ml in 10 mM sodium acetate (pH 4.5) was immobilized on a CM5 chip by direct amine coupling chemistry to a level of ˜600 RU. A reference flow cell was left blank.
Different concentrations of the Fc variant protein (5-80 nM by 2-fold dilutions in pH 6.0 running buffer) including running buffer as blank were injected in randomized order at 30 μL/min for 180 seconds followed by a 120 second dissociation period.
Sensorgrams obtained from kinetic SPR measurements were analyzed by the double subtraction method. The signal from the reference flow cell was subtracted from the analyte binding response obtained from flow cell with immobilized ligands. Buffer reference was subtracted from analyte binding responses, and the final double-referenced data were analyzed with Biacore T200 Evaluation software (2.0, GE), globally fitting data to derive kinetic parameters. All sensorgrams were fitted using two-state reaction model, as described in Weirong Wang et al, DrugMetab Dispos.: 39(9): 1469-77 (2011).

The target of assay [7] is T6, Cyno RIII (cynomolgus monkey, UniProt Q8SPW2 17-208).
T6 construct: extracellular domain
T6 sequence (Q8SPW2 17-208): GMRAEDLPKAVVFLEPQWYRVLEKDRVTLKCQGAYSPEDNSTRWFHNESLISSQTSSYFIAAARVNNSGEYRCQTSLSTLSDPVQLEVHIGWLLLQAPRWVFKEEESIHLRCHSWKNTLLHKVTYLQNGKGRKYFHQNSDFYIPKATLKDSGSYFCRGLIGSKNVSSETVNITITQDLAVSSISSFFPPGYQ
The assay can be described thus: SPR, Fc captured, receptor as analyte. How it is done:
as §1

Assay [8] deals with T7, Cyno RI (cynomolgus monkey, UniProt Q8SPW5 16-292).
T7 construct: also called cyno RI receptor
T7 sequence (Q8SPW5 entry or part of it limits assumed): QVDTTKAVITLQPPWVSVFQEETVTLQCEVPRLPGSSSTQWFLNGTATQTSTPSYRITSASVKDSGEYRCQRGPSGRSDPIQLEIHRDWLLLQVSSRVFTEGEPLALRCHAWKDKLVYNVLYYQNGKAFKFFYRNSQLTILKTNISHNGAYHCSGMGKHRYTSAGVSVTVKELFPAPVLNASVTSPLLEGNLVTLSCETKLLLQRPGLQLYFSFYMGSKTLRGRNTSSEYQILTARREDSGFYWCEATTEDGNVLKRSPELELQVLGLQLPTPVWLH
In words: SPR, Fc captured, receptor as analyte. How it is done:
as §1

T1 sequence (Q07011 24-255): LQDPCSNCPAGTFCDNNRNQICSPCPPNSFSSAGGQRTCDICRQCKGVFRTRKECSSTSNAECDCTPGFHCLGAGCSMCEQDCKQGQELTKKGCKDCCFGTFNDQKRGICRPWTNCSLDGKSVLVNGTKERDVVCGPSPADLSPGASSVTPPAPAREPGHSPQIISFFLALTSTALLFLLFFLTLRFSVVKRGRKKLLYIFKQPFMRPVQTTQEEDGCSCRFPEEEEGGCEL

B1: FXX01066 (bispecific antibody)
chain: EVQLVQSGAEVKKPGASVKVSCKASGYTFTSYWMNWVRQAPGQGLEWMGNIYPSGGSTNYAQKFQGRVTMTVDTSTSTVYMELSSLRSEDTAVYYCASFSDGYYAYAMDYWGQGTLVTVSSGGGGSGGGGSGGGGSGGGGSEIVMTQSPATLSLSPGERATLSCRASQSVSSYLNWYQQKPGQAPRLLIYYASRRHTGIPARFSGSGSGTDFTLTISSLQPEDFAVYYCQQGYNLPYTFGQGTKVEIKEPKSSDKTHTCPPCPAPPAAAPSVFLFPPKPKDTLMISRTPEVTCVVVDVSHEDPEVKFNWYVDGVEVHNAKTKPREEQYNSTYRVVSVLTVLHQDWLNGKEYKCAVSNKALPAPIEKTISKAKGQPREPQVYTLPPSRDELTKNQVSLTCLVKGFYPSDIAVEWESNGQPENNYKTTPPVLDSDGSFFLYSKLTVDKSRWQQGNVFSCSVMHEALHNHYTQKSLSLSPGGGGSPSSYVLTQPPSVSVAPGQTARITCGGNNIGSKSVNWFQQKPGQAPVLVVYDDSGRPSGIPERFSGSTSGNTATLTISRVEAGDEADYYCQVWDSSSDHVVFGGGTKLTVLGGGGSGGGGSGGGGSGGGGSQVQLVESGGGVVQPGRSLRLSCAASGFTLSYYGMHWVRQAPGKGLEWVAAISHDGSDKYYADSVKGRFTISRDNSKNTLYLQMNSLRAEDTAVYYCSNDQFDPWGQGTLVTVSSR
notes: ADAPTIR scFv-Fc-scFv, anti-4-1BB (VH-VL) N-terminal, anti-OX40 C-terminal, PAA (del) Fc; also called FX01066
Take B1: in assay [1], the EC50 turned out to be 0.27 nM and the “Max MFI” value was found to be 4540 MFI. Further, in assay [2], the “OX40 Reporter Assay EC50” value was 12 pM and the “OX40 Reporter Assay Max induction” value was found to be 534000. Moreover, in assay [3], binding was put at a Kd of 0.4 nM, the koff was 0.00014 s⁻¹ and the kon was 380000 M⁻¹ s⁻¹. For the same molecule, in assay [4], the concentration giving a half-maximal response (EC50) came out at 1.5 nM and the “Max MFI” value is 8620 MFI.

B2: TSC 1005 (other)
chain: EPKSSDKTHTCPPCPAPPVAAPSVFLFPPKPKDTLMISRTPEVTCVVVDVSHEDPEVKFNWYVDGVEVHNAKTKPREEQYNSTYRVVSVLTVLHQDWLNGKEYKCAVSNKALPAPIEKTISKAKGQPREPQVYTLPPSRDELTKNQVSLTCLVKGFYPSDIAVEWESNGQPENNYKTTPPVLDSDGSFFLYSKLTVDKSRWQQGNVFSCSVMHEALHNHYTQKSLSLSPG
notes: IgG1 Fc with E233P, L234V, L235A, deletion of G236, G237A, K322A (EU); also called PVAdel TSC01005
Regarding B2, the binding result in assay [5], in assay [7] and in assay [8] was “no binding” throughout. Further, the Kd in assay [6] was 20 nM.
